Experiment: soluble on expression in E. coli; label from the status in PepcDB or PDB records
With “MSQGFKTEADVMRNTAHRVDDTNQEVSAELSRLRSIVDGVRASWEGTAQVSFDNLMQRWDASAKGLQDALQSISDNIRGNATSFENVEADNQSAFSAVGGQGLAL” the “soluble on expression in E. coli” value was “not soluble”. In the case of “MSQHAFSPDENVHLSPKGWYRQASEKPGFIHDAAQAAAIEQLDRLWHELVDFKSKRNRFLGRSLRSPQVPRGLYFWGGVGRGKSFLMDAFYACVPYRRKRRIHFHHFMAETHRELRKFAGGKDPLLAYADQIAKATRLLCFDEFHVSDIADAMILGRLLSALLERGVVVVTTSNYAPDDLYPGGLQRQNFLPTIELIKRELDVLNVDGGHDYRLRELTREPLFMVPADAANEGKMEQLFRRVSTGAELAQKSITVLEREIAVKRMSPGVIWFDFMALCDGPRAQTDYLEIASEYHTVFLSGIPRLSAKQASIARRFTWLVDVFYDNRVKLIASADAPPEAIYTEGLQSGEFFRTASRLTEMQSKSYLELPHQSMTQSHDQPPPGVALLEHHHHHH”, the “soluble on expression in E. coli” value is reported as “not soluble”. For “MSQIIIKTPQEIEKMRVAGRLAAEVLEMITPFVKEGVTTAELDKICHEYIVKEQDAYPAPLNYHGFPKSICASINHVVCHGIPADKKLKNGDILNIDITVKKDGYHGDTSKMFMIGEPSVMAKKLVEVTHECLWKGIEVVKPGNHFGDIGAAIEKHAKKFGYSIVDAFCGHGIGANFHEPPHVMHHGKAGTGAMFEEGMIFTIEPMINIGKRAVSVLKDGWTAVTKDRSLSAQWEHTILVTKDGYEVLTLREEEKN”, the “soluble on expression in E. coli” value was “not soluble”. For “MSQLLLNLEGKTKIKAIARKNDLCERKSSNLHHFCVEFHNNYEFLEIGLSEARSLASISDKNVLNSNRKAENYQKKWKNFEKESILKLNSIMEKISSHSQPSHHHTNASITLPYDATIQKIAEKEKNLSKLLKELSIVDSSLKEEKASFEKTQSALLKEKGKIEKDKLMLREEAQKQASMNAEVQKKELESQERLSVLNKQFMEENEKKVKLEQEELDSKNAYNDCLQLNIPNAESQMITDQLATLDEFYSDLNNNSSNEIMAEIPDFEEIIDLFNQFKSSMESQKDILNTLAGLEEQLGDHQLEIKSVRKDINKLKGLQGKQSFYKEELKLKKSALEEIQRKIDYDQDVLNSLKVVEKAAKPDDYLRPRNSRKESVFRKLPIPERSMQHDSDTLDTRKNSKTMLKNESTRHSNPGIRLLKVPNRDSDEESENSFDDGTTQDESGVNAFFGQLSDEKEESPTAVEFSMAAHLTEFSQRQAAAAAKMNMKTPEKKVVEIESDEDDDLDSSIIAPNRAKSKDDRKSDDSDDDLNDEEGDADQSIWGSDD”, the “soluble on expression in E. coli” value was “not soluble”. For “MSQPRTVTVLGATGSIGHSTLDLIERNLDRYQVIALTANRNVKDLADAAKRTNAKRAVIADPSLYNDLKEALAGSSVEAAAGADALVEAAMMGADWTMAAIIGCAGLKATLAAIRKGKTVALANKESLVSAGGLMIDAVREHGTTLLPVDSEHNAIFQCFPHHNRDYVRRIIITASGGPFRTTSLAEMATVTPERAVQHPNWSMGAKISIDSATMMNKGLELIEAFHLFQIPLEKFEILVHPQSVIHSMVEYLDGSILAQIGSPDMRTPIGHTLAWPKRMETPAESLDFTKLRQMDFEAPDYERFPALTLAMESIKSGGARPAVMNAANEIAVAAFLDKKIGFLDIAKIVEKTLDHYTPATPSSLEDVFAIDNEARIQAAALMESLPA”, the “soluble on expression in E. coli” value was “soluble”. For “MSRETNFNGTKRKRSDVAEKVAQRWKSVRYSAEMENMAPVNSNNDSDDCVIVSESKIIDLTNQEQDLSERIETNDTAKGAVFKLMKSDFYEREDFMGEVEDMITLKDIFGTETLKRSILFSFQYELDFLLRQFHQNVENITIVGQKGTIMPIEARAMDATLAVILKKVKLIEITMPPFASHHTKLIINFYDNGECKIFLPSNNFTSMETNLPQQVCWCSPLLKIGKEGLPVPFKRSLIEYLNSYHLKDIDELITKSVEEVNFAPLSELEFVYSTPSKFQSSGLLSFYNKLEKLSAGTSASDTAKHYLCQTSSIGTSLSRARDENLWTHLMIPLFTGIMSPPAKDTAGRKKAEILPTNSLINEYSQRKIKPYIIFPTEQEFVTSPLKWSSSGWFHFQYLQKKSYYEMLRNKFKVFYKQDPAMVTRRRGTTPAHSKFYMHCATNSAGPCDASQVFKELEWCLYTSANLSQTAWGTVSRKPRNYEAGVLYHSRRLANTRKVTCRTFTRDRRGCAGNPTHVAVPFTLPVIPYDLAEDECFCLARHEND”, the “soluble on expression in E. coli” value was “soluble”. With “MSRFAPATPLLLSLLLTSCSPAQGVRVERITGGGMLYTVATVDPARDQLTLHWLNPATGKPYSSFAQLGSRLGKQGKKLLFATNSGIYMPGPKPLGLHVEGGKTLVGLNNAGKGGGNFALLPNGVFWLRGKKAGVTETQAYRKLGLAPDYATQSGPLLVANGKLHPDFNKSGTSFKVRSGVGVCGGGKVRFAISAGPVNFYSFATFFRDTLGCPDALYLDGSISAYATPDTDTQFTEFAGIWAVTARLEHHHHHH” the “soluble on expression in E. coli” value was “soluble”. With “MSRIEFIRKEEKKYHDFCYENYKLFEEGSWLYKPVKTVIELLPILDERTSPKVLDLGSGVGRNSIPIAKEIKNKNGKVICVDLLDSALDKLKLYSKEYEVEEVIETMKADIGHYDIAKNEYDLIVAVSTLEHVESENVFEKVIKKMASGTKNEGINCIIVNSEVEEIDISTNEKLDAMMEVNMKTKDMLSKLRQSYNGWEIVNQLVKPLEYKIVRDERDVLLKTNAITFAVKKKLEHHHHHH” the “soluble on expression in E. coli” value was “not soluble”. For “MSRIEQLISDIESYIDNCKYYPLSNVKIIVNKEQLEDMLTELRLKTPDEVKKYQKILSNKDAILADAKEQADAIINAAQIQTEELINEHEIMQRAYAQANELIEQATAQAQTILDNATEEANSIRYGAMQYTDDMLAKLQYIIEHSIKDNKEKYDSLLSGLENVLSVVNNNRNELSGIEENSTEESADTDASNETDSQSDDEE”, the “soluble on expression in E. coli” value was “not soluble”. With “MSRKIPKEPTTRPAFNAYEKHVRDINNFVIPYQRENKYKKVVGETDLDVLKREYRFIRESEEEDAKSWETRLARRHYERLYKDYAIAELSQWREGSVGFRWLNQTEVLQGKGYSCCAATDCDSASELNTFEVPFTYEEDGETKATLVKVRLCRSCQVKMRESYRIAREKLK” the “soluble on expression in E. coli” value was “soluble”. With “MSRLPTTPCEQLKLDNQLCFALYSTSLQMTKVYKPLLQALGLTYPQYIAMLVLWERDGLTVGEISARMLTDPGSLTPLLKRLEGEGLITRTRSSEDERVVLLRLTDKGRALQRQAESIPACILESTGLDLPQLVALKDELLALRGNLQAPD” the “soluble on expression in E. coli” value was “not soluble”. With “MSRQCTHYGRWPQHGFTSLKKLRPQSVTSRIQPGSDVIVCAEMDEHWGYVGAKSRQRWLFYAYDRIRRTVVAHVFGERTLATLERLLSLLSAFEVVVWMTDGWPLYESRLKGKLHVISKRYTQRIERHNLNLRQHLARLVRKSLSFSKSVELHDKVIGHYLNIKHYQLEHHHHHH” the “soluble on expression in E. coli” value was “not soluble”. For “MSRRLPPLNSLRVFEAAARHLSFTRAAEELFVTQAAVSHQIKALEEFLGLKLFRRRNRSLLLTEEGQSYFLDIKEIFSSLSEATDKVLERSAKGALTISLPPSFAIQWLVPRLSDFNNQEPDIDVRIKAVDMDEGSLTEDVDVAIYYGRGNWPGLRVELLYQEQLLPLCSPQVLLNEKPLATIDDLRFHTLLHDTSRKDWKQFVKHYELAGMNVNQGPIFSHSTMVLQAAAHGQGIALGNNVLAQPELDAGRLVAPFEEVLVSKNAFYLVCNEKQADTGRIATFREWILSKARSEQEIVDDE”, the “soluble on expression in E. coli” value was “soluble”. In the case of “MSRTVIRAQPFFLQAAPGSREQLANPRGFTTFVLEASWSTGLRLDTYVTRGLGDPEQIMREEFQGQYVFWDTDEYLDLIRWMRHYNVSHPGRPTLRFVGNDLGYPGPEAFDQVTSYVTAHRPGVAERIATLYAGLRPARSASAGAWMGQQLTKDLASRRAEAARAERALTLLCASGRPRGSAGRAYNWAVQNATAVAQSFTGYAFPDEEFPERMRYRDQAMADNTAWWLAHTNGRILLASNNGHVAYTSDNPQEFPEPVGAFLRKKLGRKYVSVGLTFSEGSLNALPDFTAGQPQKYAVDPAPAGHNEHTLDQVRHRDFALDLRTAPPAARAWLDTARPTRSYGLYWSDQDPETALGRSYDIVIHLHRVEAARLWAFTSVKDGQSYRLEHHHHHH”, the “soluble on expression in E. coli” value is reported as “not soluble”. For “MSRVYTLLTGLLLSLIALSLQAAQLTASVDRTRLNAGETVELTLETDDVTQFGKPDMSSLEASFEVRDTRQLNSLKTLDGSSQATTRWIVTLLPRETGSVIIPSLQLGELKSQPLTLQVMQSETKEPTSHLASIFIEASLDQDSVYVQAQAVLTLRVYHSVSLFDDSSLN”, the “soluble on expression in E. coli” value was “not soluble”.
